The values that follow come from patent US20130225493A1 (HEPACORE, published 2013).

The chains are these.
T1: FGFR4 extracellular domain, immobilized (R4-Fc) (UniProt P22455 22-369)
T1 construct: extracellular domain; also called FDCPR4-Fc
T1 sequence (looked up): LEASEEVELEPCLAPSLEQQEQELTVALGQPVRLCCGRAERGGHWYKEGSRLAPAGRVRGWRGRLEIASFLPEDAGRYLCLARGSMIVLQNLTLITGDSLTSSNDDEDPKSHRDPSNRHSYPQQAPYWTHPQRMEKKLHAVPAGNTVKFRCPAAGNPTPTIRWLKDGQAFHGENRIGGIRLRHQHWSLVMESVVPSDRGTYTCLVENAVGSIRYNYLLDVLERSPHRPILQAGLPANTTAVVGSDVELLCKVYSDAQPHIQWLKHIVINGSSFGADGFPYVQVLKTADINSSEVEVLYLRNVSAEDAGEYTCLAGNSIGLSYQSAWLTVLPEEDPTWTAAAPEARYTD

B1: FGF-18^Δ37 (ligand)
chain: MENQTRARDDVSRKQLRLYQLYSRTSGKHIQVLGRRISARGEDGDKYAQLLVETDTFGSQVRIKGKETEFYLCMNRKGKLVGKPDGTSKECVFIEKVLENNYTALMSAKYSGWYVGFTKKGRPRKGPKTRENQQDVHFMKRYPKGQPELQKPFKYTTVTKRSRRIRPTHPA
modifications: biotinylated in the immobilized receptor assays (sites not given)
notes: E. coli expressed; Numbering includes the signal peptide (1-27); also called v1
B2: FGF-18 (recombinant wild type, mature form without the signal peptide) (ligand)
chain: MENVDFRIHVENQTRARDDVSRKQLRLYQLYSRTSGKHIQVLGRRISARGEDGDKYAQLLVETDTFGSQVRIKGKETEFYLCMNRKGKLVGKPDGTSKECVFIEKVLENNYTALMSAKYSGWYVGFTKKGRPRKGPKTRENQQDVHFMKRYPKGQPELQKPFKYTTVTKRSRRIRPTHPA
modifications: biotinylated in the immobilized receptor assays (sites not given)
notes: Expressed in E. coli from pET9a and purified on heparin Sepharose; also called FGF-18 wild type; F18 w.t
B3: FGF-18^Δ51 (ligand)
chain: MLRLYQLYSRTSGKHIQVLGRRISARGEDGDKYAQLLVETDTFGSQVRIKGKETEFYLCMNRKGKLVGKPDGTSKECVFIEKVLENNYTALMSAKYSGWYVGFTKKGRPRKGPKTRENQQDVHFMKRYPKGQPELQKPFKYTTVTKRSRRIRPTHPA
modifications: biotinylated in the immobilized receptor assays (sites not given)
notes: E. coli expressed; Numbering includes the signal peptide (1-27); also called v3
B4: FGF-18^Δ45 (ligand)
chain: MDVSRKQLRLYQLYSRTSGKHIQVLGRRISARGEDGDKYAQLLVETDTFGSQVRIKGKETEFYLCMNRKGKLVGKPDGTSKECVFIEKVLENNYTALMSAKYSGWYVGFTKKGRPRKGPKTRENQQDVHFMKRYPKGQPELQKPFKYTTVTKRSRRIRPTHPA
modifications: biotinylated in the immobilized receptor assays (sites not given)
notes: E. coli expressed; Numbering includes the signal peptide (1-27); also called v2
B5: FGF-18^Δ33 (ligand)
chain: MRIHVENQTRARDDVSRKQLRLYQLYSRTSGKHIQVLGRRISARGEDGDKYAQLLVETDTFGSQVRIKGKETEFYLCMNRKGKLVGKPDGTSKECVFIEKVLENNYTALMSAKYSGWYVGFTKKGRPRKGPKTRENQQDVHFMKRYPKGQPELQKPFKYTTVTKRSRRIRPTHPA
modifications: biotinylation not stated for the functional ELISA of Table 4
notes: E. coli expressed; Numbering includes the signal peptide (1-27)
B6: FGF-18^Δ31 (ligand)
chain: MDFRIHVENQTRARDDVSRKQLRLYQLYSRTSGKHIQVLGRRISARGEDGDKYAQLLVETDTFGSQVRIKGKETEFYLCMNRKGKLVGKPDGTSKECVFIEKVLENNYTALMSAKYSGWYVGFTKKGRPRKGPKTRENQQDVHFMKRYPKGQPELQKPFKYTTVTKRSRRIRPTHPA
modifications: biotinylation not stated for the functional ELISA of Table 4
notes: E. coli expressed

The first assay addresses T1, FGFR4 extracellular domain, immobilized …. Briefly: ELISA: biotinylated ligand on immobilized FGFR-Fc, HRP-streptavidin. The protocol:
FIGS. 2A-2D. […] (2A) FGFR1; (2B) FGFR2; (2C) FGFR3 and (2D) FGFR4. Biotinylated FGF-18 (♦) and three FGF-18 variants (Δ37, v1,; Δ45, v2, (▪); and Δ51, v3, (▪)) were added at increasing concentrations to FGFR1-4 anchored to a MaxiSorp ELISA plate. Bound ligands were detected by HRP-streptavidin. Data are the average of duplicate wells.
FGF-18 and the N-terminal truncated variants (FGF-18^Δ37, FGF-18^Δ45 and FGF-18^Δ51) were tested for receptor specificity by binding to immobilized extracellular domain of FGFR1-4 (FIG. 2). Biotinylated FGF's were added at increasing concentrations to FGFR1-4 anchored to a MaxiSorp ELISA plate. Bound ligands were detected by HRP-streptavidin. […] The variants of the present invention are thus shown to be specific for FGFR3-4.
Turning to B1, the EC50 turned out to be 5.86 ng/mL.

Take B2: a half-maximal effect (EC50) was put at 9.23 ng/mL.

In turn, B3 had an EC50 of 9.93 ng/mL.

The molecule B4 showed an EC50 of 8.1 ng/mL.

Another assay shares this target. Briefly: functional ELISA on immobilized FGFR.
The molecule B5 showed a concentration for a half-maximal effect (EC50) of 7.11 ng/mL.

Take B1: the EC50 worked out at 8.28 ng/mL.

B2 had an EC50 of 10.2 ng/mL.

In turn, B3 gave an EC50 of 10.6 ng/mL.

The molecule B6 had an EC50 of 9.36 ng/mL.
